For experiment [1], the target named is T1, 5T4 on cells (NCI-H226 endogenous; CHO over-expressing 5T4) (UniProt Q13641 32-420, limits assumed).
T1 construct: whole, on cells
T1 sequence (looked up): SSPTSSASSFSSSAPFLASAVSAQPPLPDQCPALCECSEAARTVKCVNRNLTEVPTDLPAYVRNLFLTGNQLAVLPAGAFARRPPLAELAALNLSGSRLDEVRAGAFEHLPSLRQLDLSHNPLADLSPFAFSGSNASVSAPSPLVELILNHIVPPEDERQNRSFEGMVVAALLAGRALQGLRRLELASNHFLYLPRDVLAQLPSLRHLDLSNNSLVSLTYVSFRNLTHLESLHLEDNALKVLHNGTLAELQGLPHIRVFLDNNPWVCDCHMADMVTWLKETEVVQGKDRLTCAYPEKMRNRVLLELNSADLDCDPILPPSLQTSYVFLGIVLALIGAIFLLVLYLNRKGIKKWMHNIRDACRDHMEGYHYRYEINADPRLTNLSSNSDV
The experiment in a line: FACS on NCI-H226 cells, endogenous 5T4 (FIG. 45B). As for the experimental part:
(§1) Suspension cultured cells was harvested directly, and adherent cell were digested using TrypLE Express Enzyme (cat: 12604-013, supplier Life technologies). Centrifuge at 1000 rpm for 5 min and discard the supernatant. Cells are suspended at a concentration of 2×10⁶/mL in FACS buffer (2% FBS in PBS) and add 100 µL/well of cell suspension to the plate (cat #3799, supplier Corning). Centrifuging the plates at 2000 rpm for 5 min and discard the supernatant. Re-suspend the cells in 100 µL/well of Tribody set antibodies (400 nM start, 4-fold dilution, 8 point including 0 point) and incubate the plate for 60 min at 4° C. Centrifuge the plate at 2000 rpm, 4° C. for 5 min and discard supernatant. Then wash the cells 3 times with 170 µL FACS buffer. Re-suspend the cells at 100 µL/well with secondary antibody (goat anti-human Ig Fab-FITC, Cat # 2085-02, Southern biotech) with 1:400 dilution and incubate the plate for 30 min at 4° C. in dark. Centrifuge the plate at 2000 rpm, 4° C. for 5 min and discard supernatant. […] The fluorescence intensity of the staining was measured using flow cytometer (BD, FACSVerse). The geometric mean fluorescence intensity (GMFI; median fluorescence intensity (MFI)) of set antibodies staining was calculated (BD FACSuite software). Dose-response curves were generated and EC50s for thetrispecific variants binding were calculated using GraphPad Prism software.

The target in a further experiment is T2, NKG2A-CD94-ECD-hFc (human, UniProt P26715 94-233; Q13241 32-179, limits assumed).
T2 construct: extracellular domain; Lot 20200724002, 'provided by CP'; the two-chain layout here is only the reading of the name; also called human NKG2A (recombinant); NKG2A antigen; not shown: human Fc (hFc)
The experiment in a line: ELISA on coated NKG2A-CD94-ECD-hFc (FIG. 43C). As for the experimental part: (§2) Methods: ELISA binding of Tribody/ProTribody antibody constructs to antigens: Dilute target protein (hCD3epsilon-His (cat # 10977-H08S, supplier Sino Biological); h5T4-His (cat# 19845-H08H, supplier Sino Biological); NKG2A-CD94-ECD-hFc, Lot:20200724002, provided by CP; or NKG2D-ECD-hFc, Lot: 20200413002, provided by CP) into PBS with final concentration of 0.01 µg/mL for hCD3epsilon-His, 0.3 µg/mL for h5T4-His, 1 µg/mL for NKG2A-CD94-ECD-hFc and 0.7 µg/mL for hNKG2D-ECD-hFc respectively and coat 100 µL/well on ELISA plate (cat: 9018, supplier Corning) respectively. Incubate O/N, 4° C. The plates were blocked with 250 µL 1% BSA in PBST for 1 hr at 37° C.Wash 4 times with PBST. All the washes are done using Biotek (Elx 405). All the Tribody set antibodies were diluted to 400 nM and make 4-fold serially dilutions (12 points, including 0 point). Add 100 µL/well diluted antibody constructs solution to plate, incubate for 1 hr at 37° C.Wash 4 times with PBST. Add 100 µL/well anti-human kappa light chain-HRP (1:10000), incubate for 0.5 hr at 37° C. Wash 4 times with PBST. 100 µL/well of TMB substrate was added and incubated at room temperature for 5 min. 100 µL/well of 1N HCl to terminate reaction. Plates were read using ELISA plate reader at 450 nm wavelength (instrunet SpectraMax M5e). Data Analysis was performed using Graphpad prism 5 software by using nonlinear regression (curve fit): log (agonist) vs. response, agonist is antibody concentration (nM) and response is OD value.
On the technique in general: In an ELISA, binding on a coated surface is turned into a signal by an enzyme label.

The target in experiment [2] is T3, NKG2A on NK92 cells (endogenous) (UniProt P26715 1-233, limits assumed).
T3 construct: whole, on cells
The experiment is described as follows: FACS on NK92 cells, endogenous NKG2A (FIG. 45C). As for the experimental part: as §1

Experiment [3] deals with T4, NKG2A/CD94 on CHO cells (CHOK1-NKG2A-CD94) (human, UniProt P26715 1-233; Q13241 1-179, limits assumed).
T4 construct: whole, on cells; also called CHO cells over-expressing NKG2A/CD94; CHO cell line over expressing ectopic NKG2A
The experiment is described as follows: FACS on CHO cells over-expressing ectopic NKG2A (NKG2A/CD94 by the legend) (FIG. 45E). As for the experimental part:
as §1

Experiment [4] concerns the target T5, h5T4-His (recombinant human 5T4) (human, UniProt Q13641 32-355, limits assumed).
T5 construct: Bought protein; also called recombinant 5T4
T5 sequence (looked up): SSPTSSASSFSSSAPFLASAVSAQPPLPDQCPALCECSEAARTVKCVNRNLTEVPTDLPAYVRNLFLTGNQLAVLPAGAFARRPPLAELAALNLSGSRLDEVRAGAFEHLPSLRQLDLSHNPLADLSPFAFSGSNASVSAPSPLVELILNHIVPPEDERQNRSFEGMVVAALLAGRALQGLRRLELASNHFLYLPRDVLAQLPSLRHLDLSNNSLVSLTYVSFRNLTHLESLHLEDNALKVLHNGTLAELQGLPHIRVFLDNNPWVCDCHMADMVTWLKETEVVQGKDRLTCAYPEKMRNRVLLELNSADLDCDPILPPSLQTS
The experiment in a line: ELISA on coated h5T4-His (FIG. 43B). As for the experimental part: as §2

Experiment [5] has as its target T1, 5T4 on cells (NCI-H226 endogenous; CHO …). The experiment is described as follows: FACS on CHO cells over-expressing ectopic 5T4 (FIG. 45D). As for the experimental part:
Then wash the cells 3 times with 170 µL FACS buffer. Re-suspend the cells at 100 µL/well with secondary antibody (goat anti-human Ig Fab-FITC, Cat # 2085-02, Southern biotech) with 1:400 dilution and incubate the plate for 30 min at 4° C. in dark. Centrifuge the plate at 2000 rpm, 4° C. for 5 min and discard supernatant. Then wash the cells 3 times with FACS buffer and analyze the sample with FACS verse. The fluorescence intensity of the staining was measured using flow cytometer (BD, FACSVerse). The geometric mean fluorescence intensity (GMFI; median fluorescence intensity (MFI)) of set antibodies staining was calculated (BD FACSuite software). Dose-response curves were generated and EC50s for thetrispecific variants binding were calculated using GraphPad Prism software.
Results: The expressed trispecific constructs were analyzed for their binding to cells expressing endogenous CD3ε, 5T4 and NKG2A/NKG2D. […] (FIG. 45F).

Experiment [6] concerns the target T4, NKG2A/CD94 on CHO cells …. The experiment in a line: competitive FACS receptor-ligand blocking assay on CHOK1-NKG2A-CD94 cells, labelled ligand HLA-E PE (FIG. 49).

T4 sequence (P26715 whole entry, chain 1 of 2): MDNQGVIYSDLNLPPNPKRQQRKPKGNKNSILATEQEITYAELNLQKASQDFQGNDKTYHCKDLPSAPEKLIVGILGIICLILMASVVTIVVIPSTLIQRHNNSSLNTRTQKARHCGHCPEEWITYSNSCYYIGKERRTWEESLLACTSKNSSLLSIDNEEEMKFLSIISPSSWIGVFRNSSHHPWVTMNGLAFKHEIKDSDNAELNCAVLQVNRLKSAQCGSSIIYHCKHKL
T4 sequence (Q13241 whole entry, chain 2 of 2): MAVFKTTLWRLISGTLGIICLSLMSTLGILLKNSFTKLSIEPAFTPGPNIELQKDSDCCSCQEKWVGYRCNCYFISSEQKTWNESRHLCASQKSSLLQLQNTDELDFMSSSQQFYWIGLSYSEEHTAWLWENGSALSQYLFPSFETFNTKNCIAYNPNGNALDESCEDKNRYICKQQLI
T2 sequence (P26715 94-233 limits assumed, chain 1 of 2): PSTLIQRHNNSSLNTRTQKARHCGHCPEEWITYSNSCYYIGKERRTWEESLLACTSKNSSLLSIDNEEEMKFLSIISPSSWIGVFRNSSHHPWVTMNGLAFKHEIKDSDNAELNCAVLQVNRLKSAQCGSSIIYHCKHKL
T2 sequence (Q13241 32-179 limits assumed, chain 2 of 2): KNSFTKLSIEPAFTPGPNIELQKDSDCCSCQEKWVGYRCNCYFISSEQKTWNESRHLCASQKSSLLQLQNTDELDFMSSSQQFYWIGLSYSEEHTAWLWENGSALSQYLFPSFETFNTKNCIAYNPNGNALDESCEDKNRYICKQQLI
T3 sequence (P26715 whole entry): as the sequence (P26715 whole entry, chain 1 of 2) above

B1: IM-1063 variant (other)
heavy: GGSGGSEVQLVESGGGLVQPGGSLRLSCAASGFTFNTYAMNWVRQAPGKGLEWVARIRSKYNNYATYYADSVKDRFTISRDDSKNTLYLQMNSLRAEDTAVYYCVRHGNFGNSYVSWFAYWGQGTMVTVSSASTKGPSVFPLAPSSKSTSGGTAALGCLVKDYFPEPVTVSWNSGALTSGVHTFPAVLQSSGLYSLSSVVTVPSSSLGTQTYICNVNHKPSNTKVDKRVEPKSCPPCGGGGSQVQLVQSGAEVKKPGASVKVSCKASGYTFTSYWMNWVRQAPGQGLEWMGRIDPYDSETHYAQKLQGRVTMTTDTSTSTAYMELRSLRSDDTAVYYCARGGYDFDVGTLYWFFDVWGQGTTVTVSSGGGGSGGGGSGGGGSGGGGSDIQMTQSPSSLSASVGDRVTITCRASENIYSYLAWYQQKPGKAPKLLIYNAKTLAEGVPSRFSGSGSGTDFTLTISSLQPEDFATYYCQHHYGTPRTFGGGTKVEIK
light: GGSGGSQAVVTQEPSLTVSPGGTVTLTCRSSTGAVTTSNYANWVQQKPGQAPRGLIGGTNKRAPGTPARFSGSLLGGKAALTLSGVQPEDEAEYYCALWYSNLWVFGGGTKLTVLGQPKAAPSVTLFPPSSEELQANKATLVCLISDFYPGAVTVAWKADSSPVKAGVETTTPSKQSNNKYAASSYLSLTPEQWKSHRSYSCQVTHEGSTVEKTVAPTECPPCSGGGSDIQMTQSPSSLSASVGDRVTITCRASQGISNYLAWFQQKPGKAPKSLIYRANRLQSGVPSRFSGSGSGTDFTLTISSLQPEDVATYYCLQYDDFPWTFGQGTKLEIKGGGGSGGGGSGGGGSGGGGSQVQLVQSGAEVKKPGASVKVSCKASGYTFTSFWMHWVRQAPGQGLEWMGRIDPNRGGTEYNEKAKSRVTMTADKSTSTAYMELSSLRSEDTAVYYCAGGNPYYPMDYWGQGTTVTVSS
notes: CD3/5T4/NKG2A Tribody variant
Regarding B1, the EC50 – broadly, the concentration needed to bring the measured effect to its halfway point – in experiment [1] was 1.64 nM.

B2: IM-1153 Tribody, CD3 mutant variant (other)
heavy: GGSGGSEVQLVESGGGLVQPGGSLRLSCAASGFTFNTYAMNWVRQAPGKGLEWVARIGSGGNGYATYYADSVKDRFTISRDDSKNTLYLQMNSLRAEDTAVYYCVRHGNFGASARSWFAYWGQGTMVTVSSASTKGPSVFPLAPSSKSTSGGTAALGCLVKDYFPEPVTVSWNSGALTSGVHTFPAVLQSSGLYSLSSVVTVPSSSLGTQTYICNVNHKPSNTKVDKRVEPKSCPPCGGGGSDIQMTQSPSSLSASVGDRVTITCRASENIYSYLAWYQQKPGKAPKLLIYNAKTLAEGVPSRFSGSGSGTDFTLTISSLQPEDFATYYCQHHYGTPRTFGGGTKVEIKGGGGSGGGGSGGGGSGGGGSQVQLVQSGAEVKKPGASVKVSCKASGYTFTSYWMNWVRQAPGQGLEWMGRIDPYDSETHYAQKLQGRVTMTTDTSTSTAYMELRSLRSDDTAVYYCARGGYDFDVGTLYWFFDVWGQGTTVTVSS
light: GGSGGSQAVVTQEPSLTVSPGGTVTLTCRSSTGAVTRGNAANWVQQKPGQAPRGLIGGTNARAPGTPARFSGSLLGGKAALTLSGVQPEDEAEYYCALGYSGLWVFGGGTKLTVLGQPKAAPSVTLFPPSSEELQANKATLVCLISDFYPGAVTVAWKADSSPVKAGVETTTPSKQSNNKYAASSYLSLTPEQWKSHRSYSCQVTHEGSTVEKTVAPTECPPCSGGGSDIQMTQSPSSLSASVGDRVTITCRASQGISNYLAWFQQKPGKAPKSLIYRANRLQSGVPSRFSGSGSGTDFTLTISSLQPEDVATYYCLQYDDFPWTFGQGTKLEIKGGGGSGGGGSGGGGSGGGGSQVQLVQSGAEVKKPGASVKVSCKASGYTFTSFWMHWVRQAPGQGLEWMGRIDPNRGGTEYNEKAKSRVTMTADKSTSTAYMELSSLRSEDTAVYYCAGGNPYYPMDYWGQGTTVTVSS
For B2, the EC50 with NKG2A-CD94-ECD-hFc was found to be 2.1 nM; in experiment [2], 3.7 nM; in experiment [3], 3 nM; in experiment [4], 31 nM; in experiment [5], 1.33 nM. For the same molecule, the IC50 (as a rule, the concentration at which inhibition is half-maximal) in experiment [6] amounted to 18 nM.

B3: IM-1155 Tribody, additional CD3 epsilon mutant variant (other)
heavy: GGSGGSEVQLVESGGGLVQPGGSLRLSCAASGFTFNGGSGGWVRQAPGKGLEWVAGGGSGGGGSGGGSGGSGGGRFTISRDDSKNTLYLQMNSLRAEDTAVYYCVRGGGSGGSGGSGGGGWGQGTMVTVSSASTKGPSVFPLAPSSKSTSGGTAALGCLVKDYFPEPVTVSWNSGALTSGVHTFPAVLQSSGLYSLSSVVTVPSSSLGTQTYICNVNHKPSNTKVDKRVEPKSCPPCGGGGSDIQMTQSPSSLSASVGDRVTITCRASENIYSYLAWYQQKPGKAPKLLIYNAKTLAEGVPSRFSGSGSGTDFTLTISSLQPEDFATYYCQHHYGTPRTFGGGTKVEIKGGGGSGGGGSGGGGSGGGGSQVQLVQSGAEVKKPGASVKVSCKASGYTFTSYWMNWVRQAPGQGLEWMGRIDPYDSETHYAQKLQGRVTMTTDTSTSTAYMELRSLRSDDTAVYYCARGGYDFDVGTLYWFFDVWGQGTTVTVSS
light: GGSGGSQAVVTQEPSLTVSPGGTVTLTCGSSGGGSGGGGSGGWVQQKPGQAPRGLIGGGSGGGSGTPARFSGSLLGGKAALTLSGVQPEDEAEYYCGGGGSGGGGFGGGTKLTVLGQPKAAPSVTLFPPSSEELQANKATLVCLISDFYPGAVTVAWKADSSPVKAGVETTTPSKQSNNKYAASSYLSLTPEQWKSHRSYSCQVTHEGSTVEKTVAPTECPPCSGGGSDIQMTQSPSSLSASVGDRVTITCRASQGISNYLAWFQQKPGKAPKSLIYRANRLQSGVPSRFSGSGSGTDFTLTISSLQPEDVATYYCLQYDDFPWTFGQGTKLEIKGGGGSGGGGSGGGGSGGGGSQVQLVQSGAEVKKPGASVKVSCKASGYTFTSFWMHWVRQAPGQGLEWMGRIDPNRGGTEYNEKAKSRVTMTADKSTSTAYMELSSLRSEDTAVYYCAGGNPYYPMDYWGQGTTVTVSS
Take B3: the IC50 in experiment [6] was 60 nM.

These data come from US20230312753A1 (IMMUNORIZON, published 2023).
